Experimental data from paper PMC12416549 (2024).
Numbering of substitutions follows the chain as printed. Names may count otherwise.

B1: A47F (designed binder)
chain: SMEEEVEKAAKEYEKKKKEAIEKHLEKLKAKDKEAAERFLKELEEAFKEYAKDEAKTMSEEEAKRRAKKYKEKVLLSELSEEEQKEIKEAEEKLVRTILKYVEEAAK
B2: A55S (designed binder)
chain: B1 chain with F47A, A55S
B3: K93G (designed binder)
chain: B1 chain with F47A, K93G
B4: K29Q (designed binder)
chain: B1 chain with K29Q, F47A
B5: E72A (designed binder)
chain: B1 chain with F47A, E72A
B6: L43E (designed binder)
chain: B1 chain with L43E, F47A
B7: V74C (designed binder)
chain: B1 chain with F47A, V74C
B8: E26T (designed binder)
chain: B1 chain with E26T, F47A
B9: L75S (designed binder)
chain: B1 chain with F47A, L75S
B10: E86H (designed binder)
chain: B1 chain with F47A, E86H
B11: A67P (designed binder)
chain: B1 chain with F47A, A67P
B12: E37Y (designed binder)
chain: B1 chain with E37Y, F47A
B13: K17N (designed binder)
chain: B1 chain with K17N, F47A
B14: K69R (designed binder)
chain: B1 chain with F47A, K69R
B15: V6E (designed binder)
chain: B1 chain with V6E, F47A
B16: E86C (designed binder)
chain: B1 chain with F47A, E86C
B17: A67I (designed binder)
chain: B1 chain with F47A, A67I
B18: K107R (designed binder)
chain: B1 chain with F47A, K107R
B19: L40V (designed binder)
chain: B1 chain with L40V, F47A
B20: L94C (designed binder)
chain: B1 chain with F47A, L94C
B21: E34T (designed binder)
chain: B1 chain with E34T, F47A
B22: M58F (designed binder)
chain: B1 chain with F47A, M58F
B23: E60F (designed binder)
chain: B1 chain with F47A, E60F
B24: K48V (designed binder)
chain: B1 chain with F47A, K48V
B25: E22R (designed binder)
chain: B1 chain with E22R, F47A
B26: E12V (designed binder)
chain: B1 chain with E12V, F47A
B27: R38H (designed binder)
chain: B1 chain with R38H, F47A
B28: T97W (designed binder)
chain: B1 chain with F47A, T97W
B29: A9D (designed binder)
chain: B1 chain with A9D, F47A
B30: K15G (designed binder)
chain: B1 chain with K15G, F47A
B31: I21M (designed binder)
chain: B1 chain with I21M, F47A
B32: V102K (designed binder)
chain: B1 chain with F47A, V102K
B33: K56Q (designed binder)
chain: B1 chain with F47A, K56Q
B34: L76H (designed binder)
chain: B1 chain with F47A, L76H
B35: E22S (designed binder)
chain: B1 chain with E22S, F47A
B36: A36Y (designed binder)
chain: B1 chain with A36Y, F47A
B37: L99Q (designed binder)
chain: B1 chain with F47A, L99Q
B38: K93N (designed binder)
chain: B1 chain with F47A, K93N
B39: K73S (designed binder)
chain: B1 chain with F47A, K73S
B40: L94N (designed binder)
chain: B1 chain with F47A, L94N
B41: A67W (designed binder)
chain: B1 chain with F47A, A67W
B42: M58S (designed binder)
chain: B1 chain with F47A, M58S
B43: L43P (designed binder)
chain: B1 chain with L43P, F47A

Molecular target: T1, TNFR1 (Homo sapiens, UniProt P19438)
T1 chain: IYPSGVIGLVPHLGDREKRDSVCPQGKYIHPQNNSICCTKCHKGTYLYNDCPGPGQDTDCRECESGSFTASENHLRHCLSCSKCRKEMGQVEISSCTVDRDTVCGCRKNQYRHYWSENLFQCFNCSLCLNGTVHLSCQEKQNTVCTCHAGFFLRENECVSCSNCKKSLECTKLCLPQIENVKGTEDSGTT
Experiment: yeast display SC50

Binder	apparent Kd (screen)
B1	0.593 nM
B2	1.69 nM
B3	0.79 nM
B4	0.593 nM
B5	2.73 nM
B6	16.7 nM
B7	4.39 nM
B8	0.593 nM
B9	0.718 nM
B10	1.69 nM
B11	0.593 nM
B12	0.49 nM
B13	2.73 nM
B14	1.27 nM
B15	11.4 nM
B16	0.653 nM
B17	7.07 nM
B18	1.54 nM
B19	0.49 nM
B20	2.73 nM
B21	0.446 nM
B22	11.4 nM

Binder	apparent Kd (screen)
B23	0.956 nM
B24	0.653 nM
B25	0.446 nM
B26	0.956 nM
B27	1.4 nM
B28	2.48 nM
B29	1.16 nM
B30	0.653 nM
B31	0.539 nM
B32	1.27 nM
B33	2.73 nM
B34	1.69 nM
B35	0.539 nM
B36	0.539 nM
B37	11.4 nM
B38	1.27 nM
B39	9.41 nM
B40	20.2 nM
B41	10.4 nM
B42	4.39 nM
B43	12.5 nM
